According to patent US11254745 (CROWN BIOSCIENCE, dated 2022):
Blank lines part the entries; values can stand above or below the binder they belong to.

Key:
[1] = target: T1, extracellular domain of hCD4 fused with a histidine tag (hCD4-HisTag) (human, UniProt P01730 26-396); assay: Biacore T200 SPR, antibody captured on Protein A, CD4-HisTag analyte, 1:1 fit, 25 C
T1 construct: extracellular domain; also called human CD4-HisTag; not shown: histidine tag
Experimental: The binding kinetics between CD4 and CD4 antibodies were measured by Biacore™ analysis, which was performed at 25° C. on a Biacore™ T200 instrument. Protein A (GE, Cat. No:29139131-AA) was diluted with 10 mM pH 5.0 sodium acetate and immobilized onto reference and experiment flow cells of a CM5 biosensor chip to around 15000 RU using an amine coupling kit (GE, BR10050). In the beginning of each cycle, diluted test antibody (1.5 µg/mL) was injected over experiment flow cell for 1 minute to be captured. CD4-HisTag analyte series were prepared by diluting the stocks with running buffer to 100 nM followed by 2-fold serial dilution in the same buffer down to 0.78 nM. Analytes were injected in series over the reference and experiment flow cells for 3 minutes at a flow rate of 30
μL/minute. Running buffer (PBS with 0.05% P20) was allowed to flow over for 10 minutes at a flow rate of 30 μL/minute. At the end of each cycle, the biosensor surface was regenerated with 3-minute injection of 10 mM pH 2.0 Glycine-HCl buffer at a flow rate of 10 μL/minute. For each analyte sample injection (i.e., each cycle), binding responses obtained from the experimental biosensor surface were double referenced by subtracting simultaneously recorded responses from the reference surface followed by additional subtraction of responses from a single referenced running buffer sample. The association and dissociation rate constants (ka and kd) were determined simultaneously by fitting double-referenced sensorgrams of the entire titration series to Langmuir model (1:1) using Biaevaluation software. The dissociation constant, KD, was calculated from the determined rate constants by the equation KD=kd/ka.

[2] = target: T2, extracellular domain of hCD4 fused with human Fc tag (hCD4-hFc) (human, UniProt P01730 26-396); assay: ELISA on human CD4, OD450; table under the graph (unit from the graph's axis); Table 7 of the text gives this value to 2B6
T2 construct: extracellular domain; also called human CD4-hFc; hCD4 (ELISA); not shown: human Fc tag
Experimental: (§1) Example 2: Selection of the Anti-hCD4 Hybridoma Antibodies Based on Binding and Gene Reporter Assays The binding interaction between hybridoma antibody and human CD4-hFc was measured by ELISA. 96-well plates (Costar, Cat. No:9018) were coated with 100 μL of 2 μg/ml CD4-hFc (CrownBio) in PBS buffer (Hyclone, Cat. No: SH30256.01B) overnight at 4° C. The wells were aspirated and non-specific binding sites were blocked by adding 200 μL of blocking buffer containing 1% (w/v) of bovine serum albumin (BSA, Roche, Cat. No: 738328) and incubating for 1 hour at 37° C. […] The colorimetric signals were monitored at 450 nm using a SpectraMax Plus microplate reader (Molecular Devices). For the purified antibody, data were analyzed using GraphPad Prism 5 to calculated the $EC50$.
(§2) DNA encoding humanized 2B6, 29B7 and MT412 antibody light chain and heavy chain was synthesized and cloned to the expression vector pcDNA3.1 (Invitrogen, Cat. No: V-790). […] Binding of the chimeric antibody with CD4 was measured by ELISA (FIG. 6, Table 7) and FACS (FIG. 7, Table 8), and the methods used were similar to those described above in Example 2.

[3] = target: T2, extracellular domain of hCD4 fused with …; assay: ELISA, humanized antibody on hCD4, method similar to Example 2
Experimental: (§3) Example 2: Selection of the Anti-hCD4 Hybridoma Antibodies Based on Binding and Gene Reporter Assays The binding interaction between hybridoma antibody and human CD4-hFc was measured by ELISA. 96-well plates (Costar, Cat. No:9018) were coated with 100 μL of 2 μg/ml CD4-hFc (CrownBio) in PBS buffer (Hyclone, Cat. No: SH30256.01B) overnight at 4° C. The wells were aspirated and non-specific binding sites were blocked by adding 200 μL of blocking buffer containing 1% (w/v) of bovine serum albumin (BSA, Roche, Cat. No: 738328) and incubating for 1 hour at 37° C. After the plates are washed three times with PBS buffer containing 0.05% (v/v) Tween™ 20 (Sigma, Cat. No: P1379), 100 μL hybridoma supernatant or a serial concentrations of purified antibody (starting from 20 μg/mL) diluted in blocking buffer was added to each well and incubated at room temperature for 1 hour. The plates were washed and incubated with 100 μL/well of Goat anti-Mouse IgG (Thermo, Cat. No:31432) in blocking buffer for 60 min. After the plates were washed, 100 μL/well of substrate solution TMB (eBioscience, Cat. No:00-4201-56) was added, and the plates were incubated for 2 min at room temperature before 100 μL/well of 2N H_2SO_4 was added to stop the reaction. The colorimetric signals were monitored at 450 nm using a SpectraMax Plus microplate reader (Molecular Devices). For the purified antibody, data were analyzed using GraphPad Prism 5 to calculated the $EC50$.
(§4) DNA encoding humanized 2B6, 29B7 and MT412 antibody light chain and heavy chain was synthesized and cloned to the expression vector pcDNA3.1 (Invitrogen, Cat. No: V-790). Freestyle 293 cells (200 mL at 10^6/mL) were transfected with 100 µg of each of the humanized heavy and light chain expression plasmids and cultured for 6 days at 37° C. The humanized antibody in the supernatant was then purified with Protein-A column (GE healthcare). Binding of the chimeric antibody with CD4 was measured by ELISA (FIG. 6, Table 7) and FACS (FIG. 7, Table 8), and the methods used were similar to those described above in Example 2.

[4] = target: T3, human CD4 on 293T cells stably expressing CD4 (CD4-293T) (human, UniProt P01730 26-458); assay: FACS, humanized antibody on CD4-293T cells
T3 construct: whole, on cells; also called 293T-CD4 cells; hCD4 (FACS)
Experimental: (§5) Cell binding analysis of anti-CD4 antibody was performed using 293T cell line stably expressing CD4 (CD4-293T). 2*10^5 CD4-293T cells were added to each well of 96-well plate and incubated with the indicated hybridoma supernatant or a serial concentrations of purified antibody (starting from 20 μg/mL) at 4° C. for 1 h. After the cells were washed three times with FACS buffer, the secondary antibody (PE Goat anti-mouse: 1:200) was added to the cells at 100 μl/well, and incubated at 4° C. for 40 min. Cells were washed three times with FACS buffer and analyzed by FACS Array. The binding EC50 of purified antibody was calculated with GraphPad Prism 5.
as §4

[5] = target: T3, human CD4 on 293T cells stably …; assay: FACS on 293T cells expressing human CD4, MFI; table under the graph (unit from the graph's axis); Table 8 of the text gives this value to 2B6
Experimental: as §5, §4

[6] = target: T3, human CD4 on 293T cells stably …; assay: FACS, chimeric antibody on CD4-293T cells
Experimental: as §5
(§6) Freestyle 293 cells (200 mL at 1*10^6/mL) were transfected with 100 µg of each of the chimeric heavy and light chain expression plasmids and cultured for 6 days at 37° C. The chimeric antibody in the supernatant was then purified with Protein-A column (GE healthcare). Binding of the chimeric antibody with CD4 was measured by ELISA (FIG. 3, Table 5) and FACS (FIG. 4, Table 6), using the similar methods described above in Example 2.

[7] = target: T3, human CD4 on 293T cells stably …; assay: FACS on 293T cells expressing human CD4, MFI; table under the graph (unit from the graph's axis); Table 6 of the text gives this value to MT412
Experimental: as §5, §6

[8] = target: T2, extracellular domain of hCD4 fused with …; assay: ELISA, chimeric antibody on hCD4, method similar to Example 2
Experimental: as §3, §6

[9] = target: T3, human CD4 on 293T cells stably …; assay: FACS on 293T cells expressing human CD4, MFI; table under the graph (unit from the graph's axis); Table 8 of the text gives this value to 29B7
Experimental: as §5, §4

[10] = target: T2, extracellular domain of hCD4 fused with …; assay: ELISA on human CD4, OD450; table under the graph (unit from the graph's axis); Table 7 of the text gives this value to 29B7
Experimental: as §1, §2

[11] = target: T3, human CD4 on 293T cells stably …; assay: FACS on 293T cells expressing human CD4, MFI; table under the graph (unit from the graph's axis); Table 8 of the text gives this value to MT412
Experimental: as §5, §4

[12] = target: T2, extracellular domain of hCD4 fused with …; assay: ELISA on human CD4, OD450; table under the graph (unit from the graph's axis); Table 7 of the text gives this value to MT412
Experimental: as §1, §2

B3: 2B6 humanized anti-CD4 antibody (antibody, V domains shown)
VH: QVQLQESGPGLVKPSETLSLTCTVSGDSITSGYWNWIRQPPGKGLEFLGYISFADTTNYNPSLKSRVTISRDTSKNQFSLKLSSVTAADTAVYYCARDDYGYYAMDYWGQGTLVTVSS
VL: DIQLTQSPSSLSASVGDRVTITCRASQDIDNYLNWYQQKPGKAPKLLIYYTSRLHSGVPSRFSGSGSGTDYTLTISSLQPEDFATYYCQQGNTLPTFGQGTKLEIK
notes: Expressed as heavy and light chains in Freestyle 293 cells; also called Humanized 2B6
- Kd [1]: 0.152 nM
- koff [1]: 7.89e-05 s⁻¹
- kon [1]: 520000 M⁻¹ s⁻¹
- EC50 [9]: 0.182 µg/mL
- EC50 [10]: 0.0056 µg/mL
- EC50 [3]: 0.0116 µg/mL
- EC50 [4]: 0.211 µg/mL

B4: 29B7 humanized anti-CD4 antibody (antibody, V domains shown)
VH: QVQLVQSGAEVKKPGASVKVSCKASGDSLNTHWMHWVRQAPGQRLEWIGYINPYTGSGEYSQKFKGRATLTADISASTAYMELSSLRSEDTAVYYCAYDSTGAMDYWGQGTLVTVSS
VL: DIQMTQSPSSLSASVGDRVTITCKASQDINRYLSWFQQKPGKAPKTPIYRADRSVDGVPSRFSGSGSGQDYTLTISSLQPEDFATYYCQQYDEFPYTFGQGTKLEIK
notes: Expressed as heavy and light chains in Freestyle 293 cells; The description says only that humanized antibodies may have human IgG1 and human kappa constant regions; also called Humanized 29B7
- EC50 [11]: 0.183 µg/mL
- Kd [1]: 0.444 nM
- koff [1]: 0.000457 s⁻¹
- kon [1]: 1.03e+06 M⁻¹ s⁻¹
- EC50 [12]: 0.0116 µg/mL
- EC50 [3]: 0.0056 µg/mL
- EC50 [4]: 0.182 µg/mL

Further lines, results first:

- Kd [1]: 1.8 nM
- koff [1]: 0.00199 s⁻¹
- kon [1]: 1.11e+06 M⁻¹ s⁻¹
- EC50 [2]: 0.0116 µg/mL
- EC50 [3]: 0.0116 µg/mL
- EC50 [4]: 0.183 µg/mL
- EC50 [5]: 0.211 µg/mL
B1: MT412 humanized anti-CD4 antibody (antibody, V domains shown)
VH: QIQLVQSGSELKKPGASVKVSCKASGYTFTDYSMHWVRQAPGQGLEWMGWINTETGEPTYADDFKGRFVFSLDTSVSTAYLQISSLKAEDTAVYYCAREDYYGHDGFLYWGQGTLVTVSS
VL: DIQMTQSPSFLSASVGDRVTITCKASQDVVTTVAWYQQKPGKAPKLLIYWASLRHTGVPSRFSGSGSGTEFTLTISSLQPEDFATYFCQQYSSYPYTFGQGTKLEIKR
notes: Expressed as heavy and light chains in Freestyle 293 cells; The description says only that humanized antibodies may have human IgG1 and human kappa constant regions; also called Humanized MT412

- EC50 [6]: 0.401 µg/mL
- Kd [1]: 0.0843 nM
- koff [1]: 5.98e-05 s⁻¹
- kon [1]: 709000 M⁻¹ s⁻¹
- EC50 [7]: 0.515 µg/mL
- EC50 [8]: 0.0243 µg/mL
B2: Chimeric 29B7 anti-CD4 antibody (antibody, human IgG1, kappa, V domains shown)
VH: QVQLQQSGAELAKPGASVKMSCKTSADSLNTHWMHWVKQRPGQGLEWIGYINPYTGSGEYSQKFKGKATLTADISSSTAYMQLISLTSEDSAVYYCAYDSTGAMDYWGQGTSVTVSS
VL: DIKMTQSPSSMYASLGERITITCKASQDINRYLSWFQQKPGKSPKTPIYRADRSVDGVPSRFSGSGSGQDYSLTISSLEYEDMGIYYCQQYDEFPYTFGGGTKLEIKR
